According to paper PMC5923308:
Where two headings read alike, the source gives them in different places.

Tests used:
[1] = molecular target: crotoxin (CTX) from Crotalus durissus terrificus venom, heterodimer of CA and CB (Crotalus durissus terrificus)
[2] = molecular target: crotoxin basic subunit CB (phospholipase A2) from Crotalus durissus terrificus (Crotalus durissus terrificus) (UniProt P0CG56)
[3] = molecular target: crotoxin basic subunit CB (phospholipase A2) from Crotalus durissus terrificus (Crotalus durissus terrificus) (UniProt P0CG56); assay: ELISA
[4] = molecular target: crotoxin (CTX) from Crotalus durissus terrificus venom, heterodimer of CA and CB (Crotalus durissus terrificus); assay: SPR; Biacore T200; CTX immobilised on a CM5 chip by EDC/NHS coupling (10 mM acetate, pH 5.5); VHHs injected at 2.5 to 0.002 uM in HBS-p (10 mM HEPES, 150 mM NaCl, 3.4 mM EDTA, 0.005% Tween 20, pH 7.4); 30 uL/min, 25 °C; 1:1 Langmuir model
[5] = molecular target: crotoxin basic subunit CB (phospholipase A2) from Crotalus durissus terrificus (Crotalus durissus terrificus) (UniProt P0CG56); assay: ELISA; remark: listed apart in the source
[6] = molecular target: crotoxin (CTX) from Crotalus durissus terrificus venom, heterodimer of CA and CB (Crotalus durissus terrificus); assay: SPR; Biacore T200; CTX amine-coupled on a CM5 chip; VHH 2.5 to 0.002 µM in HBS-p (10 mM HEPES, 150 mM NaCl, 3.4 mM EDTA, 0.005% Tween 20, pH 7.4); 30 µL/min, 25 °C; 1:1 Langmuir model
[7] = molecular target: crotoxin (CTX) from Crotalus durissus terrificus venom, heterodimer of CA and CB (Crotalus durissus terrificus); remark: listed apart in the source
[8] = molecular target: crotoxin basic subunit CB (phospholipase A2) from Crotalus durissus terrificus (Crotalus durissus terrificus) (UniProt P0CG56); remark: listed apart in the source

VHH KF498604 (clone Cb-16)
inhibition of phospholipase activity on acyl-NBD-PC fluorescent phospholipids, toxin pre-incubated with VHH 30 min at 37 °C, toxin/VHH 1:5 to 1:40 (w/w) [1]: 80% | inhibition of phospholipase activity on acyl-NBD-PC fluorescent phospholipids, toxin pre-incubated with VHH 30 min at 37 °C, toxin/VHH 1:5 to 1:40 (w/w) [2]: 80% | % of the unheated sample's ELISA signal after 1 h at 85 °C [3]: > 75% | % of the unheated sample's ELISA signal after 1 h at 95 °C [3]: 100% | koff [4]: 0.00554 s⁻¹ | kon [4]: 68100 M⁻¹ s⁻¹ | % of the unheated sample's ELISA signal after 1 h at 85 °C [5]: 85% | Kd [6]: 81.3 nM | reduction of plasma creatine kinase in Swiss mice 3 h after i.m. injection of CTX (1.5 µg) pre-incubated with VHH at 1:10, 1:20 and 1:40 (w/w) (46%, 63%, 78%), against CTX alone [7]: 78.8% | reduction of LDH release from murine C2C12 myotubes after 3 h with CB (20 µg) pre-incubated with VHH at 1:2.5 (w/w), against CB alone [8]: 59.3%
